Here are results for nine molecules from patent US20250002588A1 (DIAGONAL THERAPEUTICS, published 2025).

The target in test [1] is ALK-1/BMPR-2 receptor pair of the PathHunter U2Os dimerization cells (DiscoverX 93-0962C3) (UniProt P37023 22-503; Q13873 27-1038). As to the kind of experiment: cell-based or functional assay.
For test [2], the target named is human ALK1 protein (Sino Biological, #10066-H08H) (human, UniProt P37023 22-118). As to the kind of experiment: ELISA, coated human ALK1. On the procedure: These binders were then tested using an ELISA assay. High binding plates (Corning, 9018) were coated with either 2 μg/ml of human BMPRII protein (Sino Biological, #10551-H08H) or 2 μg/ml of human ALK1 protein (Sino Biological, #10066-H08H) overnight at 4C. The plates were then washed three times with wash buffer (R&D Systems, WA126). […] The plates were then washed three times with wash buffer and DGL antibodies or controls, which were diluted with PBS and 0.1% BSA. The antibodies were incubated for one hour at room temperature and then the plates were washed three times with wash buffer. The plates were then incubated with mouse anti-human IgG Fc secondary—HRP (diluted with PBS/0.1% BSA); 100 ul per well at 2 μg/ml and incubated at room temperature for one hour. The plate was washed three times in wash buffer and then 100 ul TMB (R&D Systems, DY9998B, substrate reagent pack). After the wells turn blue, 50 ul of stop solution (R&D Systems, DY994) was added to each well and the absorbance of the plate was read at 450 nm. results can be found in Table 8.
Sequence of human ALK1 protein (Sino Biological, #10066-H08H) (P37023 22-118 limits assumed): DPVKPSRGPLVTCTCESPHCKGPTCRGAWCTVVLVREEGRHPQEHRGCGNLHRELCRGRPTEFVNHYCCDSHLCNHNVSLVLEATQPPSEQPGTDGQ

Sequence of ALK-1/BMPR-2 receptor pair of the PathHunter U2Os dimerization cells (DiscoverX 93-0962C3) (P37023 22-503, chain 1 of 2): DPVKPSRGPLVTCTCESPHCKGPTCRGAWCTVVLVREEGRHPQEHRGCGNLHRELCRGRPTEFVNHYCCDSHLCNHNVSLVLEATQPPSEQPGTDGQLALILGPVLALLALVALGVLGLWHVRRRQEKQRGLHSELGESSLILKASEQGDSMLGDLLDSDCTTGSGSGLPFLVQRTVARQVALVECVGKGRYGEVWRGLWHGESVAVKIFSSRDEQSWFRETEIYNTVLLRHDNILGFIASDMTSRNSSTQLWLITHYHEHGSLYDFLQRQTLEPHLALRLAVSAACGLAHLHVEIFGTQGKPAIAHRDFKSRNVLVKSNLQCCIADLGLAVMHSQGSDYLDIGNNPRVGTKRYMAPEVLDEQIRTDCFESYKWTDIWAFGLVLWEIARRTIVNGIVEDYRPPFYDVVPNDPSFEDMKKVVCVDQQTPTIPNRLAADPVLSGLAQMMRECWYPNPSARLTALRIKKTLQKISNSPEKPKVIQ
Sequence of ALK-1/BMPR-2 receptor pair of the PathHunter U2Os dimerization cells (DiscoverX 93-0962C3) (Q13873 27-1038, chain 2 of 2): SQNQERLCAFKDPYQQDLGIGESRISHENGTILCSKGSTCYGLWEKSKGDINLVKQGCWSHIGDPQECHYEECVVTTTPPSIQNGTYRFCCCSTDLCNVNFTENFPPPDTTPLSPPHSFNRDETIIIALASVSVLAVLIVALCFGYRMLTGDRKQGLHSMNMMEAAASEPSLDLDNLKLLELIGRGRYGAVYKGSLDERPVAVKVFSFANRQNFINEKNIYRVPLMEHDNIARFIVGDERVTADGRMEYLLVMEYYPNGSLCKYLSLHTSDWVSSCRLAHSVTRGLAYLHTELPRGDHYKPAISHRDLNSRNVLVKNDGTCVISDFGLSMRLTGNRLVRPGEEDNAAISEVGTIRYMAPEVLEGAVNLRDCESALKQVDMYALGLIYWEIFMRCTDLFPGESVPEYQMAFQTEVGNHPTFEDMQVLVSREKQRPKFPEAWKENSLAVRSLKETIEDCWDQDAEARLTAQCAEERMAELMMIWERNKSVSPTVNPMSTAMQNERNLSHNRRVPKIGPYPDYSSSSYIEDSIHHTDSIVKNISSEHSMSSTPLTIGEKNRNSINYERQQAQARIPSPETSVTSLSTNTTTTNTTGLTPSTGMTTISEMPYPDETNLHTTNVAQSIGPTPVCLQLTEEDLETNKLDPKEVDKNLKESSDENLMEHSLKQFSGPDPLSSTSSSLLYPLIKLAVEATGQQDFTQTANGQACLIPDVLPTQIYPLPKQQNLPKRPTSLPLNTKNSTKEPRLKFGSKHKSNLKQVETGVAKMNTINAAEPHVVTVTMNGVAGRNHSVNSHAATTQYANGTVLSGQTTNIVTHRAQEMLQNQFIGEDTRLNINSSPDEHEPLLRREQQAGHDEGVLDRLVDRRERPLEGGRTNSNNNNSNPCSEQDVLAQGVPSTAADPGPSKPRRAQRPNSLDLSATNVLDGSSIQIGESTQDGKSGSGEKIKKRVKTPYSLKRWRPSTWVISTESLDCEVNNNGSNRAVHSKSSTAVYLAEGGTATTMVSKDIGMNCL

B1: DGL639 (bispecific antibody)
chain 1: EVQLLESGGGLVQPGGSLRLSCAASGFTFSDYYMTWIRQAPGKGLEWVSSISGGSTYYADSRKGRFTISRDNSENTLYLQMNSLRAEDTAVYYCARNVTSGGYFGSFGLDLWGQGTLVTVSSGGGGSGGGGSGGGGSQSVLTQPPSASGTPGQRVTISCTGSSSNIGAGYDVHWYQQLPGTAPKLLIYRSNQRPSGVPDRFSGSKSGTSASLAISGLRSEDEADYYCSSYAGNYNLVFGGGTKLTVLDKTHTCPPCPAPEAAGAPSVFLFPPKPKDTLMISRTPEVTCVVVDVSHEDPEVKFNWYVDGVEVHNAKTKPREEQYNSTYRVVSVLTVLHQDWLNGKEYKCKVSNKALPAPIEKTISKAKGQPREPQVCTLPPSRDELTKNQVSLSCAVKGFYPSDIAVEWESNGQPENNYKTTPPVLDSDGSFFLVSKLTVDKSRWQQGNVFSCSVMHEALHNHYTQKSLSLSPGWSHPQFEK
chain 2: not shown
As for B1, in test [1], the “% Emax BMP9” value came to 41% and the “Emax (RLU)” value was 752000 RLU. In test [2], the “Abs450 1 nM” value is 0.09, the “Abs450 10 nM” value turned out to be 0.46 and the “Abs450 100 nM” value came out at 1.39.

B2: DGL637 (bispecific antibody)
chain 1: EVQLLESGGGLVQPGGSLRLSCAASGFTFSDYYMTWIRQAPGKGLEWVSSISGGSTYYADSRKGRFTISRDNSENTLYLQMNSLRAEDTAVYYCARLTVDGGGYGSGGLDLWGQGTLVTVSSGGGGSGGGGSGGGGSQSVLTQPPSASGTPGQRVTISCTGSSSNIGAGYDVHWYQQLPGTAPKLLIYRSNQRPSGVPDRFSGSKSGTSASLAISGLRSEDEADYYCSSYAGNYNLVFGGGTKLTVLDKTHTCPPCPAPEAAGAPSVFLFPPKPKDTLMISRTPEVTCVVVDVSHEDPEVKFNWYVDGVEVHNAKTKPREEQYNSTYRVVSVLTVLHQDWLNGKEYKCKVSNKALPAPIEKTISKAKGQPREPQVCTLPPSRDELTKNQVSLSCAVKGFYPSDIAVEWESNGQPENNYKTTPPVLDSDGSFFLVSKLTVDKSRWQQGNVFSCSVMHEALHNHYTQKSLSLSPGWSHPQFEK
chain 2: not shown
On to B2, for which, in test [1], the “% Emax BMP9” value amounted to 21% and the “Emax (RLU)” value came to 382000 RLU. In test [2], the “Abs450 1 nM” value worked out at 0.16, the “Abs450 10 nM” value was 0.77 and the “Abs450 100 nM” value was 1.48.

B3: DGL636 (bispecific antibody)
chain 1: EVQLLESGGGLVQPGGSLRLSCAASGFTFSDYYMTWIRQAPGKGLEWVSSISGGSTYYADSRKGRFTISRDNSENTLYLQMNSLRAEDTAVYYCARWETSSGGFGSGGLSHWGQGTLVTVSSGGGGSGGGGSGGGGSQSVLTQPPSASGTPGQRVTISCTGSSSNIGAGYDVHWYQQLPGTAPKLLIYRSNQRPSGVPDRFSGSKSGTSASLAISGLRSEDEADYYCSSYAGNYNLVFGGGTKLTVLDKTHTCPPCPAPEAAGAPSVFLFPPKPKDTLMISRTPEVTCVVVDVSHEDPEVKFNWYVDGVEVHNAKTKPREEQYNSTYRVVSVLTVLHQDWLNGKEYKCKVSNKALPAPIEKTISKAKGQPREPQVCTLPPSRDELTKNQVSLSCAVKGFYPSDIAVEWESNGQPENNYKTTPPVLDSDGSFFLVSKLTVDKSRWQQGNVFSCSVMHEALHNHYTQKSLSLSPGWSHPQFEK
chain 2: not shown
B3: in test [1], the “% Emax BMP9” value came out at 20% and the “Emax (RLU)” value was 362000 RLU. Further, in test [2], the “Abs450 1 nM” value came to 0.11, the “Abs450 10 nM” value came out at 0.56 and the “Abs450 100 nM” value was found to be 1.45.

B4: DGL638 (bispecific antibody)
chain 1: EVQLLESGGGLVQPGGSLRLSCAASGFTFSDYYMTWIRQAPGKGLEWVSSISGGSTYYADSRKGRFTISRDNSENTLYLQMNSLRAEDTAVYYCARNEVSGGYYGEFGLSLWGQGTLVTVSSGGGGSGGGGSGGGGSQSVLTQPPSASGTPGQRVTISCTGSSSNIGAGYDVHWYQQLPGTAPKLLIYRSNQRPSGVPDRFSGSKSGTSASLAISGLRSEDEADYYCSSYAGNYNLVFGGGTKLTVLDKTHTCPPCPAPEAAGAPSVFLFPPKPKDTLMISRTPEVTCVVVDVSHEDPEVKFNWYVDGVEVHNAKTKPREEQYNSTYRVVSVLTVLHQDWLNGKEYKCKVSNKALPAPIEKTISKAKGQPREPQVCTLPPSRDELTKNQVSLSCAVKGFYPSDIAVEWESNGQPENNYKTTPPVLDSDGSFFLVSKLTVDKSRWQQGNVFSCSVMHEALHNHYTQKSLSLSPGWSHPQFEK
chain 2: not shown
As to B4, in test [1], the “% Emax BMP9” value was found to be 80% and the “Emax (RLU)” value was 1.47e+06 RLU. Besides, in test [2], the “Abs450 1 nM” value is 0.05, the “Abs450 10 nM” value was determined as 0.22 and the “Abs450 100 nM” value came to 1.02.

B5: DGL640 (bispecific antibody)
chain 1: EVQLLESGGGLVQPGGSLRLSCAASGFTFSDYYMTWIRQAPGKGLEWVSSISGGSTYYADSRKGRFTISRDNSENTLYLQMNSLRAEDTAVYYCARWETSGGYYGSGGLTIWGQGTLVTVSSGGGGSGGGGSGGGGSQSVLTQPPSASGTPGQRVTISCTGSSSNIGAGYDVHWYQQLPGTAPKLLIYRSNQRPSGVPDRFSGSKSGTSASLAISGLRSEDEADYYCSSYAGNYNLVFGGGTKLTVLDKTHTCPPCPAPEAAGAPSVFLFPPKPKDTLMISRTPEVTCVVVDVSHEDPEVKFNWYVDGVEVHNAKTKPREEQYNSTYRVVSVLTVLHQDWLNGKEYKCKVSNKALPAPIEKTISKAKGQPREPQVCTLPPSRDELTKNQVSLSCAVKGFYPSDIAVEWESNGQPENNYKTTPPVLDSDGSFFLVSKLTVDKSRWQQGNVFSCSVMHEALHNHYTQKSLSLSPGWSHPQFEK
chain 2: not shown
In the case of B5, in test [1], the “% Emax BMP9” value was found to be 83% and the “Emax (RLU)” value was found to be 1.53e+06 RLU. Besides, in test [2], the “Abs450 1 nM” value was determined as 0.09, the “Abs450 10 nM” value is 0.47 and the “Abs450 100 nM” value was 1.4.

B6: DGL642 (bispecific antibody)
chain 1: EVQLLESGGGLVQPGGSLRLSCAASGFTFSNAWMNWVRQAPGKGLEWVSSISSSSSYIYYADSVKGRFTISRDNSKNTLYLQMNSLRAEDTAVYYCARSNGSGGSTYPLDLWGQGTLVTVTSSGGGGSGGGGSGGGGSQSVLTQPPSASGTPGQRVTISCSGSRSNIGSNSVHWYQQLPGTAPKLLIYGNSNRPSGVPDRFSGSKSGTSASLAISGLRSEDEADYYCQSYDSSLNDHVVFGGGTKLTVLDKTHTCPPCPAPEAAGAPSVFLFPPKPKDTLMISRTPEVTCVVVDVSHEDPEVKFNWYVDGVEVHNAKTKPREEQYNSTYRVVSVLTVLHQDWLNGKEYKCKVSNKALPAPIEKTISKAKGQPREPQVCTLPPSRDELTKNQVSLSCAVKGFYPSDIAVEWESNGQPENNYKTTPPVLDSDGSFFLVSKLTVDKSRWQQGNVFSCSVMHEALHNHYTQKSLSLSPGWSHPQFEK
chain 2: not shown
Consider B6, for which, in test [1], the “% Emax BMP9” value was 14% and the “Emax (RLU)” value amounted to 255000 RLU. In test [2], the “Abs450 1 nM” value was determined as 0.08, the “Abs450 10 nM” value was found to be 0.09 and the “Abs450 100 nM” value worked out at 0.5.

B7: DGL643 (bispecific antibody)
chain 1: EVQLLESGGGLVQPGGSLRLSCAASGFTFSNAWMNWVRQAPGKGLEWVSSISSSSSYIYYADSVKGRFTISRDNSKNTLYLQMNSLRAEDTAVYYCARSNGSGGSDYPLDLWGQGTLVTVTSSGGGGSGGGGSGGGGSQSVLTQPPSASGTPGQRVTISCSGSRSNIGSNSVHWYQQLPGTAPKLLIYGNSNRPSGVPDRFSGSKSGTSASLAISGLRSEDEADYYCQSYDSSLNDHVVFGGGTKLTVLDKTHTCPPCPAPEAAGAPSVFLFPPKPKDTLMISRTPEVTCVVVDVSHEDPEVKFNWYVDGVEVHNAKTKPREEQYNSTYRVVSVLTVLHQDWLNGKEYKCKVSNKALPAPIEKTISKAKGQPREPQVCTLPPSRDELTKNQVSLSCAVKGFYPSDIAVEWESNGQPENNYKTTPPVLDSDGSFFLVSKLTVDKSRWQQGNVFSCSVMHEALHNHYTQKSLSLSPGWSHPQFEK
chain 2: not shown
As for B7, in test [1], the “% Emax BMP9” value was found to be 13% and the “Emax (RLU)” value came to 246000 RLU. In addition, in test [2], the “Abs450 1 nM” value is 0.04, the “Abs450 10 nM” value came to 0.13 and the “Abs450 100 nM” value is 0.71.

B8: DGL650 (bispecific antibody)
chain 1: EVQLLESGGGLVQPGGSLRLSCAASGFTFSLAWMNWVRQAPGKGLEWVSSISSSTSYIYYADSVKGRFTISRDNSKNTLYLQMNSLRAEDTAVYYCARAVAAGGFFWGLDQWGQGTLVTVTSSGGGGSGGGGSGGGGSQSVLTQPPSASGTPGQRVTISCSGSRSNIGSNSVHWYQQLPGTAPKLLIYGNSNRPSGVPDRFSGSKSGTSASLAISGLRSEDEADYYCQSYDSSLNDHVVFGGGTKLTVLDKTHTCPPCPAPEAAGAPSVFLFPPKPKDTLMISRTPEVTCVVVDVSHEDPEVKFNWYVDGVEVHNAKTKPREEQYNSTYRVVSVLTVLHQDWLNGKEYKCKVSNKALPAPIEKTISKAKGQPREPQVCTLPPSRDELTKNQVSLSCAVKGFYPSDIAVEWESNGQPENNYKTTPPVLDSDGSFFLVSKLTVDKSRWQQGNVFSCSVMHEALHNHYTQKSLSLSPGWSHPQFEK
chain 2: not shown
In the case of B8, in test [1], the “% Emax BMP9” value was found to be 43% and the “Emax (RLU)” value turned out to be 801000 RLU. For the same molecule, in test [2], the “Abs450 1 nM” value turned out to be 0.08, the “Abs450 10 nM” value turned out to be 0.15 and the “Abs450 100 nM” value was determined as 0.65.

B9: DGL646 (bispecific antibody)
chain 1: EVQLLESGGGLVQPGGSLRLSCAASGFTFSNAWMNWVRQAPGKGLEWVSSISSSSSYIYYADSVKGRFTISRDNSKNTLYLQMNSLRAEDTAVYYCARAVGASTVYFGLDQWGQGTLVTVTSSGGGGSGGGGSGGGGSQSVLTQPPSASGTPGQRVTISCSGSRSNIGSNSVHWYQQLPGTAPKLLIYGNSNRPSGVPDRFSGSKSGTSASLAISGLRSEDEADYYCQSYDSSLNDHVVFGGGTKLTVLDKTHTCPPCPAPEAAGAPSVFLFPPKPKDTLMISRTPEVTCVVVDVSHEDPEVKFNWYVDGVEVHNAKTKPREEQYNSTYRVVSVLTVLHQDWLNGKEYKCKVSNKALPAPIEKTISKAKGQPREPQVCTLPPSRDELTKNQVSLSCAVKGFYPSDIAVEWESNGQPENNYKTTPPVLDSDGSFFLVSKLTVDKSRWQQGNVFSCSVMHEALHNHYTQKSLSLSPGWSHPQFEK
chain 2: not shown
Regarding B9, in test [1], the “% Emax BMP9” value amounted to 18% and the “Emax (RLU)” value was 333000 RLU. For the same molecule, in test [2], the “Abs450 1 nM” value came to 0.06, the “Abs450 10 nM” value worked out at 0.15 and the “Abs450 100 nM” value came out at 0.8.
